Reference: patent publication US20200165312A1, “COSMETIC COMPOSITION FOR IMPROVING SKIN CONDITIONS COMPRISING FUSION PROTEIN INCLUDING SKIN PENETRATION ENHANCING PEPTIDE” (LG HOUSEHOLD & HEALTH CARE LTD., priority 2017, published 2020)

Experiments:
dermal papilla cells = experiment: Hair follicle stem cell proliferation: dermal papilla cells, Cell Counter Kit-8; format: cell-based; settings: for Proliferation (%): one day, control = 100; for cell proliferation effect compared with the unfused protein: dermal papilla cells
Description: (§1) Specifically, dermal papilla cells were inoculated onto a 96-well plate and cultured for 24 hours to obtain cultures at a density of 6,000 cells per well. The cultures were washed with PBS and cultured in a serum-free DMEM medium for one day. The cells were washed with PBS again and cultured in a serum-free DMEM medium supplemented with 1 ng/mL T-PDGFa or PDGFa for one day. The cultures were obtained therefrom and a difference between proliferated amounts of cells was quantitively analyzed using the Cell Counter Kit-8 (Dojindo). Here, dermal papilla cells cultured in a serum-free DMEM medium without T-PDGFa or PDGFa were used as a control (Table 6).
Specifically, dermal papilla cells were inoculated onto a 96-well plate and cultured for 24 hours to obtain cultures at a density of 6,000 cells per well. The cultures were washed with PBS and cultured in a serum-free DMEM medium for one day. […] The cultures were obtained therefrom and a difference between proliferated amounts of cells was quantitively analyzed using the Cell Counter Kit-8 (Dojindo).
as §1, with “T-IGF-1” for “T-PDGFa”, “IGF-1” for “PDGFa”, “15).” for “6).”
as §1, with “10” for “1”, “T-KGF” for “T-PDGFa”, “KGF” for “PDGFa”, “19).” for “6).”
as §1, with “10” for “1”, “T-Tβ4” for “T-PDGFa”, “Tβ4” for “PDGFa”, “23).” for “6).”

dermal fibroblasts = experiment: Hyaluronic acid (HA) production in dermal fibroblasts (ELISA); format: cell-based, human; settings: two days
Description: Specifically, dermal fibroblasts were inoculated onto a 24-well plate and cultured for 24 hours to obtain cultures having a saturation degree of 70 to 80%. The cultures were washed with PBS and cultured in a serum-free DMEM medium including 10 ng/mL T-PDGFa or PDGFa for two days. A supernatant was obtained therefrom and the amount of hyaluronic acid (HA) produced and released in the culture solution was quantitively analyzed using an ELISA kit (R&D Systems) (Table 5).
Specifically, dermal fibroblasts were inoculated onto a 24-well plate and cultured for 24 hours to obtain cultures having a saturation degree of 70 to 80%. […] A supernatant was obtained therefrom and the amount of hyaluronic acid (HA) produced and released in the culture solution was quantitively analyzed using an ELISA kit (R&D Systems) (Table 9).

[1] = tested on: human umbilical vein endothelial cells; experiment: Endothelial cell proliferation, Cell Counter Kit-8; format: cell-based
Description: Specifically, human umbilical vein endothelial cells were inoculated onto a 96-well plate and cultured for 24 hours to obtain cultures at a density of 5,000 cells per well. The cultures were washed with PBS and cultured in a serum-free M199 medium for 16 hours. […] The cultures were obtained therefrom and a difference between proliferated amounts of cells was quantitively analyzed using the Cell Counter Kit-8 (Dojindo).
Specifically, human umbilical vein endothelial cells were inoculated onto a 96-well plate and cultured for 24 hours to obtain cultures at a density of 5,000 cells per well. The cultures were washed with PBS and cultured in a serum-free M199 medium for 16 hours. The cells were washed with PBS again and cultured in a serum-free M199 medium supplemented with 100 ng/mL T-Tβ4 or Tβ4 for one day. The cultures were obtained therefrom and a difference between proliferated amounts of cells was quantitively analyzed using the Cell Counter Kit-8 (Dojindo). Here, human umbilical vein endothelial cells cultured in a serum-free M199 medium without T-Tβ4 or Tβ4 were used as a control (Table 22).

skin keratinocytes = experiment: Keratinocyte growth (skin barrier strengthening), Cell Counter Kit-8; format: cell-based; settings: for Production (%) (keratinocyte growth): 100 ng/mL T-KGF or KGF, one day, control = 100
Description: Specifically, skin keratinocytes were cultured in a 96-well plate for one day to obtain cultures at a density of 6,000 cells per well. The cultures were washed with PBS and cultured in a serum-free DMEM medium for one day. The cells were washed with PBS again and cultured in a serum-free DMEM medium supplemented with 100 ng/mL T-IGF-1 or IGF-1 for one day. The cultures were obtained therefrom and a difference between proliferated amounts of cells was quantitively analyzed using the Cell Counter Kit-8 (Dojindo). Here, skin keratinocytes cultured in a serum-free DMEM medium without T-IGF-1 or IGF-1 were used as a control (Table 14).
Specifically, skin keratinocytes were cultured in a 96-well plate for 24 hours to obtain cultures at a density of 6,000 cells per well.
The cultures were washed with PBS and cultured in a serum-free DMEM medium for one day. The cells were washed with PBS again and cultured in a serum-free DMEM medium supplemented with 100 ng/mL T-KGF or KGF for one day. The cultures were obtained therefrom and a difference between proliferated amounts of cells was quantitively analyzed using the Cell Counter Kit-8 (Dojindo). Here, skin keratinocytes cultured in a serum-free DMEM medium without T-KGF or KGF were used as a control (Table 18).

Molecule	Proliferation (%) (dermal papilla cells; 1 ng/mL T-VEGF or VEGF)	cell proliferation effect compared with the unfused protein (dermal papilla cells)	Production (%) of hyaluronic acid (HA) (dermal fibroblasts; 10 ng/mL T-VEGF or VEGF, control = 100) [%]	hyaluronic acid producing effect compared with the unfused protein (dermal fibroblasts; 10 ng/mL)	Proliferation (%) ([1]; 100 ng/mL T-VEGF or VEGF, serum-free M199, one day, control = 100)	cell proliferation effect compared with the unfused protein ([1]; human umbilical vein endothelial cells, 100 ng/mL)	Proliferation (%) (dermal papilla cells; 10 ng/mL T-KGF or KGF)	Production (%) (keratinocyte growth) (skin keratinocytes)	effect in keratinocyte growth test compared with the unfused protein (skin keratinocytes; skin keratinocytes, 100 ng/mL)
T-VEGF: SEQ ID NO: 1 peptide C-terminal linked to N-terminal of VEGF via GG linker (protein, Synthetic Fusion protein of T-VEGF) NGSLNTHLAPILGGAPMAEGGGQNHHEVVKFMDVYQRSYCHPIETLVDIFQEYPDEIEYIFKPSCVPLMRCGGCCNDEGLECVPTEESNITMQIMRIKPHQGQHIGEMSFLQHNKCECRPKKDRARQENPCGPCSERRKHLFVQDPQTCKCSCKNTDSRCKARQLELNERTCRCDKPRR	310 ± 20	same level	230 ± 18	same level	185 ± 15	same level	–	–	–
T-KGF: SEQ ID NO: 1 peptide C-terminal linked to N-terminal of KGF via GG linker (protein, Synthetic Fusion protein of T-KGF) NGSLNTHLAPILGGCNDMTPEQMATNVNCSSPERHTRSYDYMEGGDIRVRRLFCRTQWYLRIDKRGKVKGTQEMKNNYNIMEIRTVAVGIVAIKGVESEFYLAMNKEGKLYAKKECNEDCNFKELILENHYNTYASAKWTHNGGEMFVALNQKGIPVRGKKTKKEQKTAHFLPMAIT	–	same level	–	–	–	–	270 ± 15	590 ± 27	same level
KGF: keratinocyte growth factor having an amino acid sequence of SEQ ID NO: 44 (protein, Human KGF) CNDMTPEQMATNVNCSSPERHTRSYDYMEGGDIRVRRLFCRTQWYLRIDKRGKVKGTQEMKNNYNIMEIRTVAVGIVAIKGVESEFYLAMNKEGKLYAKKECNEDCNFKELILENHYNTYASAKWTHNGGEMFVALNQKGIPVRGKKTKKEQKTAHFLPMAIT	–	–	–	–	–	–	360 ± 35	620 ± 25	–
